Data as given in patent US7608683B2, “Stress proteins and peptides and methods of use thereof” (The Regents of the University of California, priority 2000, dated 2009).

Test system: PBMC of subjects with JIA
Experiment: T cell proliferation assay, PBMC of subjects with JIA
Assay type: cell-based, human
Settings: majority of JIA subjects; SI of 2 or higher positive

B1: whole human hsp60: whole human hsp60 protein (protein)
chain: MLRLPTVFRQMRPVSRVLAPHLTRAYAKDVKFGADARALMLQGVDLLADAVAVTMGPKGRTVIIEQGWGSPKVTKDGVTVAKSIDLKDKYKNIGAKLVQDVANNTNEEAGDGTTTATVLARSIAKEGFEKISKGANPVEIRRGVMLAVDAVIAELKKQSKPVTTPEEIAQVATISANGDKEIGNIISDAMKKVGRKGVITVKDGKTLNDELEIIEGMKFDRGYISPYFINTSKGQKCEFQDAYVLLSEKKISSIQSIVPALEIANAHRKPLVIIAEDVDGEALSTLVLNRLKVGLQVVAVKAPGFGDNRKNQLKDMAIATGGAVFGEEGLTLNLEDVQPHDLGKVGEVIVTKDDAMLLKGKGDKAQIEKRIQEIIEQLDVTTSEYEKEKLNERLAKLSDGVAVLKVGGTSDVEVNEKKDRVTDALNATRAAVEEGIVLGGGCALLRCIPALDSLTPANEDQKIGIEIIKRTLKIPAMTIAKNAGVEGSLIVEKIMQSSSEVGYDAMAGDFVNMVEKGIIDPTKVVTALLDAAGVASLLTTAEVVVTEIPKEEKDPGMGAMGGMGGGMGGGMF
modifications: Homo sapiens hsp60
notes: whole human hsp60 protein
In the case of B1, the “T cell proliferative response to whole hsp60” value is reported as “positive T cell proliferative response”.
